# Results taken from paper doi:10.1101/2020.01.24.918722, “Calsyntenin-3 directly interacts with neurexins to orchestrate excitatory synapse development in the hippocampus” (bioRxiv, 2020).
# T1: His-HA-Clstn3 Ecto (extracellular domain of mouse Clstn3) (mouse, UniProt Q99JH7 21-846)
# T1 construct: extracellular domain of mouse calsyntenin-3, aa 21-846; also called His-HA-Clstn3 Full (methods); source: purified recombinant protein (pCAGGS vector); not shown: His6, N-terminal, kept; HA, N-terminal, kept
# T1 sequence (looked up): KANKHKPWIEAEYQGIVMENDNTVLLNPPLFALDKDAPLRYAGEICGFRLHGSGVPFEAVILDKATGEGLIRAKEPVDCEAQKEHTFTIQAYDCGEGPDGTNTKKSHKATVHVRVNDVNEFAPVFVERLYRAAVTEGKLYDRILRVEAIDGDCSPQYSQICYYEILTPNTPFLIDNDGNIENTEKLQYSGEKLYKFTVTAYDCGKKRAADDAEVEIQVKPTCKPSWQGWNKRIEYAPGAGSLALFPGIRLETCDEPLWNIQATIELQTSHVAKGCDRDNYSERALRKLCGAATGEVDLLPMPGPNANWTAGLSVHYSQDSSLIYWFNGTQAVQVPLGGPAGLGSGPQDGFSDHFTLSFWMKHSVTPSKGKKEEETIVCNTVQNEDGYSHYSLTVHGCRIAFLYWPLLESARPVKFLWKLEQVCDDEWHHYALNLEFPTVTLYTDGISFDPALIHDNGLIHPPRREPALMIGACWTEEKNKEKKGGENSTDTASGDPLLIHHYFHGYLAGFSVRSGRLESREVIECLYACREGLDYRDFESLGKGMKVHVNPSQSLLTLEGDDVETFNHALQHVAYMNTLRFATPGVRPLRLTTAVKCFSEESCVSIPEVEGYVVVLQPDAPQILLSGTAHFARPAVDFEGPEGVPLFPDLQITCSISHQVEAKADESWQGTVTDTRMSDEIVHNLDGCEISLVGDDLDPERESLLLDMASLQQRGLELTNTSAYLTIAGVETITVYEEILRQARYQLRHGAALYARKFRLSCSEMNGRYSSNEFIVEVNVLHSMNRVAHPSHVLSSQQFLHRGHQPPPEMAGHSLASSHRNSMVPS
# B1: Ig-mNrxn1β^+SS4 (Fc fusion)
# chain: not shown
# notes: signal peptide in the construct; extracellular region of mouse neurexin-1β with the SS4 insert, aa 1-389; also called Ig-Nrxn1β^+SS4; pCMV-IgC-mNrxn1β^+SS4; source: HEK293T, purified (protein A-Sepharose)
# B2: His-HA-Clstn3 Cad (extracellular, cadherin domains) (domain or fragment, mouse, UniProt Q99JH7 21-269, looked up)
# chain: KANKHKPWIEAEYQGIVMENDNTVLLNPPLFALDKDAPLRYAGEICGFRLHGSGVPFEAVILDKATGEGLIRAKEPVDCEAQKEHTFTIQAYDCGEGPDGTNTKKSHKATVHVRVNDVNEFAPVFVERLYRAAVTEGKLYDRILRVEAIDGDCSPQYSQICYYEILTPNTPFLIDNDGNIENTEKLQYSGEKLYKFTVTAYDCGKKRAADDAEVEIQVKPTCKPSWQGWNKRIEYAPGAGSLALFPGIR
# notes: mouse calsyntenin-3, aa 21-269 (cadherin domains); source: purified recombinant protein (pCAGGS vector); not shown: His6, N-terminal, kept; HA, N-terminal, kept
# Experiments:
# [1] = target: T1, His-HA-Clstn3 Ecto (extracellular …); assay: pull-down; direct protein-interaction assay: 10 μg purified Ig-Nrxn1 with 4 μg purified His-HA-Clstn3, 2 h at 4°C, 25 mM Tris pH 7.5, 30 mM MgCl2, 40 mM NaCl, 0.5% Triton X-100; precipitated with Talon resin, blot with anti-human IgG; details: both partners purified
# Ig-mNrxn1β^+SS4 = target: B1; assay: as above; details: both partners purified
# Ig-mNrxn1β^+SS4, sequence (P0DI97 47-389): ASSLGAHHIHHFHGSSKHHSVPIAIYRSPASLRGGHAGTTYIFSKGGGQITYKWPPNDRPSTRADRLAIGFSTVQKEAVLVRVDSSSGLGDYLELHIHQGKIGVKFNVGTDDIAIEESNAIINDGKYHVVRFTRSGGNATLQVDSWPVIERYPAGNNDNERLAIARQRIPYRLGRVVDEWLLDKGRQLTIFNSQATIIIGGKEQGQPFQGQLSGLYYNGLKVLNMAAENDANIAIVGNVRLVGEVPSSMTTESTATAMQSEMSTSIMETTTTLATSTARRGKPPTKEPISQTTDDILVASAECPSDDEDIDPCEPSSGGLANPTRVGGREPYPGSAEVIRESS
binder,measurement,setting,value
B1,binding result,[1],binds
B2,binding result,Ig-mNrxn1β^+SS4,binds
